B1: Lysine-specific demethylase 4A (Homo sapiens), O75164 (parent)
chain: MASESETLNPSARIMTFYPTMEEFRNFSRYIAYIESQGAHRAGLAKVVPPKEWKPRASYDDIDDLVIPAPIQQLVTGQSGLFTQYNIQKKAMTVREFRKIANSDKYCTPRYSEFEELERKYWKNLTFNPPIYGADVNGTLYEKHVDEWNIGRLRTILDLVEKESGITIEGVNTPYLYFGMWKTSFAWHTEDMDLYSINYLHFGEPKSWYSVPPEHGKRLERLAKGFFPGSAQSCEAFLRHKMTLISPLMLKKYGIPFDKVTQEAGEFMITFPYGYHAGFNHGFNCAESTNFATRRWIEYGKQAVLCSCRKDMVKISMDVFVRKFQPERYKLWKAGKDNTVIDHTLPTPEAAEFLKESELPPRAGNEEECPEEDMEGVEDGEEGDLKTSLAKHRIGTKRHRVCLEIPQEVSQSELFPKEDLSSEQYEMTECPAALAPVRPTHSSVRQVEDGLTFPDYSDSTEVKFEELKNVKLEEEDEEEEQAAAALDLSVNPASVGGRLVFSGSKKKSSSSLGSGSSRDSISSDSETSEPLSCRAQGQTGVLTVHSYAKGDGRVTVGEPCTRKKGSAARSFSERELAEVADEYMFSLEENKKSKGRRQPLSKLPRHHPLVLQECVSDDETSEQLTPEEEAEETEAWAKPLSQLWQNRPPNFEAEKEFNETMAQQAPHCAVCMIFQTYHQVEFGGFNQNCGNASDLAPQKQRTKPLIPEMCFTSTGCSTDINLSTPYLEEDGTSILVSCKKCSVRVHASCYGVPPAKASEDWMCSRCSANALEEDCCLCSLRGGALQRANDDRWVHVSCAVAILEARFVNIAERSPVDVSKIPLPRFKLKCIFCKKRRKRTAGCCVQCSHGRCPTAFHVSCAQAAGVMMQPDDWPFVVFITCFRHKIPNLERAKGALQSITAGQKVISKHKNGRFYQCEVVRLTTETFYEVNFDDGSFSDNLYPEDIVSQDCLQFGPPAEGEVVQVRWTDGQVYGAKFVASHPIQMYQVEFEDGSQLVVKRDDVYTLDEELPKRVKSRLSVASDMRFNEIFTEKEVKQEKKRQRVINSRYREDYIEPALYRAIME

Variants of: B1
Conditions: with h31t_human H3-4, Q16695
With N86A the “effect of a mutation on the interaction” value was “decreasing interaction”.
Q88A was tested, and the “effect of a mutation on the interaction” value was “decreasing interaction”.
With D135A the “effect of a mutation on the interaction” value was “decreasing interaction”.
Y175F was tested, and the “effect of a mutation on the interaction” value was “decreasing interaction”.
Y177F was tested, and the “effect of a mutation on the interaction” value was “decreasing interaction”.
Y177L was tested, and the “effect of a mutation on the interaction” value was “disrupting interaction”.
In the case of K241A, the “effect of a mutation on the interaction” value is reported as “disrupting interaction”.
K241L was tested, and the “effect of a mutation on the interaction” value was “disrupting interaction”.
N290A was tested, and the “effect of a mutation on the interaction” value was “disrupting interaction”.
In the case of N290D, the “effect of a mutation on the interaction” value is reported as “disrupting interaction”.
For N290I, the “effect of a mutation on the interaction” value was “disrupting interaction”.
With N290V the “effect of a mutation on the interaction” value was “disrupting interaction”.

Variants of: B1
Conditions: with h31t_human H3-4, Q16695
Remark: another data set of the same source
G133A;G138A was tested, and the “effect of a mutation on the interaction” value was “disrupting interaction strength”.
For G165A;G170A, the “effect of a mutation on the interaction” value was “disrupting interaction strength”.

— IntAct's records for PubMed 17567753
